Measurements taken from patent US20230235074A1 (University of Texas, published 2023).

Legend:
[1] = molecular target: BST2 as expressed endogenously on the surface of human cell lines (B-LCL, MM1, U266, MCF-10A, MCF7, MDA-MB-231, T47D) (human) (UniProt Q10589); assay: flow cytometry on T47D cells, mAb 1 ug/ml
[2] = molecular target: BST2 as expressed endogenously on the surface of human cell lines (B-LCL, MM1, U266, MCF-10A, MCF7, MDA-MB-231, T47D) (human) (UniProt Q10589); assay: flow cytometry on MDA-MB-231 cells, mAb 1 ug/ml
[3] = molecular target: BST2 in human tissue microarray cores; assay: immunohistochemistry, tissue microarray #72070, antigen retrieval H1; Normal breast: 0 positive of 8 tested specimens
Chain of BST2 in human tissue microarray cores (chain, as listed by the source limits assumed): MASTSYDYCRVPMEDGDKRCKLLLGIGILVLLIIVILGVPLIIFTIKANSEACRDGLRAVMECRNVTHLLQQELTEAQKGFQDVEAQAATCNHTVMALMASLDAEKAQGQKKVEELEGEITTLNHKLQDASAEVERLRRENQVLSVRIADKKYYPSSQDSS

[4] = molecular target: BST2 as expressed endogenously on the surface of human cell lines (B-LCL, MM1, U266, MCF-10A, MCF7, MDA-MB-231, T47D) (human) (UniProt Q10589); assay: flow cytometry dot plot, T47D cells transduced with BST2-silencing shRNA, 26F8 at 2 ug/ml and APC-conjugated secondary antibody; Q3 58.1, Q4 26.6
[5] = molecular target: BST2 as expressed endogenously on the surface of human cell lines (B-LCL, MM1, U266, MCF-10A, MCF7, MDA-MB-231, T47D) (human) (UniProt Q10589); assay: flow cytometry on MM1 cells, mAb preincubated with recombinant BST2 protein as competitor
[6] = molecular target: BST2 as expressed endogenously on the surface of human cell lines (B-LCL, MM1, U266, MCF-10A, MCF7, MDA-MB-231, T47D) (human) (UniProt Q10589); assay: flow cytometry on MCF7 cells, mAb 1 ug/ml
[7] = molecular target: BST2 as expressed endogenously on the surface of human cell lines (B-LCL, MM1, U266, MCF-10A, MCF7, MDA-MB-231, T47D) (human) (UniProt Q10589); assay: flow cytometry, MCF7 cells, APC-conjugated secondary antibody (the text prints 34.7% for the same panel)
[8] = molecular target: Recombinant human BST2 protein (Catalog number 13370-H07H, Sino Biological) (human) (UniProt Q10589); assay: BLI (Octet RED384), mAb 5 ug/ml captured on anti-mouse IgG Fc (AMC) biosensors, BST2 protein 15.625-1000 nM, 1:1 model, global fit
Chain of Recombinant human BST2 protein (Catalog number 13370-H07H, Sino Biological) (human) (Q10589 49-161 limits assumed): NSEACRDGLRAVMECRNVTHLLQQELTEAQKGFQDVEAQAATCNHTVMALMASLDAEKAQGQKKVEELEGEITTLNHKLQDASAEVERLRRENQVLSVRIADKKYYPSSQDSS

[9] = molecular target: BST2 long isoform (BST2-D, full length BST2, 180 amino acids) expressed on HEK293 transfectants (human) (UniProt Q10589); assay: flow cytometry, HEK293 long transfectant, 1 ug/ml antibody, APC-conjugated secondary antibody
Chain of BST2 long isoform (BST2-D, full length BST2, 180 amino acids) expressed on HEK293 transfectants (human) (Q10589 1-161 limits assumed): as the sequence (chain, as listed by the source limits assumed) above

[10] = molecular target: BST2 in human tissue microarray cores; assay: immunohistochemistry, tissue microarray #78070 (normal tissues), antigen retrieval H1; Parenchymal: 0 positive of 7 tested
[11] = molecular target: BST2 as expressed endogenously on the surface of human cell lines (B-LCL, MM1, U266, MCF-10A, MCF7, MDA-MB-231, T47D) (human) (UniProt Q10589); assay: flow cytometry dot plot, T47D-NS (non-silencing transduction) cells, 26F8 at 2 ug/ml and APC-conjugated secondary antibody; Q3 6.94, Q4 21.4
[12] = molecular target: BST2 as expressed endogenously on the surface of human cell lines (B-LCL, MM1, U266, MCF-10A, MCF7, MDA-MB-231, T47D) (human) (UniProt Q10589); assay: flow cytometry dot plot, T47D-WT cells, 26F8 at 2 ug/ml and APC-conjugated secondary antibody; Q4 (unstained) 2.71
[13] = molecular target: BST2 medium isoform (BST2-H, 158 amino acids) expressed on HEK293 transfectants; assay: flow cytometry, mAb 1 ug/ml on HEK293-medium cells
[14] = molecular target: BST2 in human tissue microarray cores; assay: immunohistochemistry, tissue microarray #72070, antigen retrieval H1; Placenta: 0 positive of 1 tested specimen
[15] = molecular target: BST2 as expressed endogenously on the surface of human cell lines (B-LCL, MM1, U266, MCF-10A, MCF7, MDA-MB-231, T47D) (human) (UniProt Q10589); assay: flow cytometry on MCF-10A cells, mAb 1 ug/ml
[16] = molecular target: BST2 as expressed endogenously on the surface of human cell lines (B-LCL, MM1, U266, MCF-10A, MCF7, MDA-MB-231, T47D) (human) (UniProt Q10589); assay: flow cytometry dot plot, T47D-NS (non-silencing transduction) cells, 26F8 at 2 ug/ml and APC-conjugated secondary antibody
[17] = molecular target: BST2 as expressed endogenously on the surface of human cell lines (B-LCL, MM1, U266, MCF-10A, MCF7, MDA-MB-231, T47D) (human) (UniProt Q10589); assay: flow cytometry on MM1 cells, mAb preincubated with Spartan protein
[18] = molecular target: BST2 as expressed endogenously on the surface of human cell lines (B-LCL, MM1, U266, MCF-10A, MCF7, MDA-MB-231, T47D) (human) (UniProt Q10589); assay: flow cytometry on B-LCL cells, mAb 1 ug/ml
[19] = molecular target: BST2 as expressed endogenously on the surface of human cell lines (B-LCL, MM1, U266, MCF-10A, MCF7, MDA-MB-231, T47D) (human) (UniProt Q10589); assay: flow cytometry on MM1 cells, mAb 1 ug/ml
[20] = molecular target: BST2 in human tissue microarray cores; assay: immunohistochemistry, tissue microarray #72070, antigen retrieval H1; BIDC stroma: 0 positive of 40 tested specimens
[21] = molecular target: BST2 as expressed endogenously on the surface of human cell lines (B-LCL, MM1, U266, MCF-10A, MCF7, MDA-MB-231, T47D) (human) (UniProt Q10589); assay: flow cytometry dot plot, T47D cells transduced with BST2-silencing shRNA, 26F8 at 2 ug/ml and APC-conjugated secondary antibody
[22] = molecular target: BST2 as expressed endogenously on the surface of human cell lines (B-LCL, MM1, U266, MCF-10A, MCF7, MDA-MB-231, T47D) (human) (UniProt Q10589); assay: flow cytometry on MM1 cells, mAb not preincubated
[23] = molecular target: BST2 as expressed endogenously on the surface of human cell lines (B-LCL, MM1, U266, MCF-10A, MCF7, MDA-MB-231, T47D) (human) (UniProt Q10589); assay: flow cytometry on U266 cells, mAb 1 ug/ml
[24] = molecular target: BST2 in human tissue microarray cores; assay: immunohistochemistry, tissue microarray #72070, antigen retrieval H1; Placenta stroma: 0 positive of 1 tested specimen
[25] = molecular target: BST2 in human tissue microarray cores; assay: immunohistochemistry, tissue microarray #72070, antigen retrieval H1; Breast stroma: 0 positive of 8 tested specimens
[26] = molecular target: T1, BST2 long isoform (BST2-D, full length BST2, 180 amino acids) expressed on HEK293 transfectants (human, UniProt Q10589 1-161); assay: flow cytometry, hybridoma supernatant on HEK293-long cells
T1 construct: also called HEK293-long; HEK293 WT-BST2
T1 sequence (Q10589 1-161 limits assumed): as the sequence (chain, as listed by the source limits assumed) above
Method: For flow cytometry assays, cells were detached using 0.05% trypsin-EDTA, counted, washed and resuspend with FACS Buffer (PBS, 2% FBS, 2 mM EDTA). 2×10⁵ cells in 100 ul/well were placed in U-bottom 96-well plate and centrifuged (1000 RPM/3 min/4° C.). The buffer was discarded and 100 ul of the previously collected supernatants with selected monoclonal antibodies were added to the wells and incubated on ice for 30 minutes. After incubation, the plate was washed three times with FACS buffer and 50 ul of diluted (1/250) secondary antibody (Donkey anti-mouse Allophycocyanin (APC) conjugated) were added to the wells and incubated on ice for 20 minutes protected from light. The final wash was repeated 4 times, and the samples were transferred and analyzed at the South Campus Flow Cytometry & Cell Sorting Core Laboratory at MD Anderson Cancer Center. FACS data were analyzed with FlowJo™ Software—for Windows (Version 10.6.1. Ashland, Oreg.: Becton, Dickinson and Company; 2020).

[27] = molecular target: T2, BST2 long isoform peptide (BST2-D peptide), positions 133-156 (human); assay: ELISA dilution assay, plate coated with BST2 peptide alone, hybridoma supernatant undiluted and 1/15, 1/225, 1/3375, OD 450 nm (axis unlabelled on the sheet)
T2 construct: Synthetic 24-mer; the free peptide (not KLH conjugated) coated the ELISA plates; also called BST2-Long (D) peptide; BST2 peptide
T2 peptide: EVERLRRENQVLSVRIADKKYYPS
Method: FIG. 5. Dilution assay. 26 positive clones were tested at serial dilutions as described under methods. Sixteen clones with the highest OD450 nm signal (those with squares around their names) were selected for further characterization. LA1-LA16 are clones picked at the first round of colony pickup; BM1-BM10 clones picked at the second round of colony pickup. PC is the positive control using anti-BST2 mAb (Clone 26F8) 1 ug/ml which recognizes all isoforms. Plates were coated with BST2 peptide alone.
To select the hybridomas capable of producing specific monoclonal antibodies against the BST2-D peptide, ELISA was performed. ELISA plates were coated with a 100 ul coating buffer, containing the BST2-D peptide in a concentration of 1 ug/ml, and incubated overnight at 4° C. Next day, ELISA plates were washed three times with PBST (PBS containing 0.05% v/v Tween®-20) and blocked with 100 ul of blocking buffer (PBS, 1% w/v BSA). After 1-hour blocking at room temperature, 50 ul supernatant from each of the 563 colonies were added to individual wells as the primary antibodies. Anti-BST2 mAb (Clone 26F8) [eBioscience] was used as a positive control and blank wells with secondary antibody only were performed in triplicates. Incubation proceeded for 1 hour followed by three washes. […] The reaction was stopped with H₂SO₄ 0.2N and the OD absorbance values were read at 450 nm. […]

Chain of BST2 as expressed endogenously on the surface of human cell lines (B-LCL, MM1, U266, MCF-10A, MCF7, MDA-MB-231, T47D) (human) (Q10589 1-161, stated change not applied): as the sequence (chain, as listed by the source limits assumed) above

anti-BST2 monoclonal antibody clone 26F8 (eBioscience)
percentage of cell staining [1]: 96.6% | percentage of cell staining [2]: 28.4% | detectable rate (% of tested specimens positive) [3]: 0% | percent of cells in quadrant Q2 (APC positive, GFP positive) [4]: 9.27% | percentage of stained cells [5]: 2.6% | percentage of cell staining [6]: 34.7% | percent of cells stained [7]: 37.7% | Kd [8]: 34.2 nM | koff [8]: 0.00132 s⁻¹ | kon [8]: 38600 M⁻¹ s⁻¹ | percent of cells stained [9]: 98.7% | detectable rate (% of tested specimens positive) [10]: 0% | percent of cells in quadrant Q2 (APC positive, GFP positive) [11]: 58.5% | percent of cells in quadrant Q1 (APC positive, GFP negative) [12]: 97.2% | percentage of cells stained [13]: 96.7% | detectable rate (% of tested specimens positive) [14]: 0% | percentage of cell staining [15]: 27.7% | percent of cells in quadrant Q1 (APC positive, GFP negative) [16]: 13.1% | percentage of stained cells [17]: 98.1% | percentage of cell staining [18]: 99.7% | percentage of cell staining [19]: 99.6% | detectable rate (% of tested specimens positive) [20]: 0% | percent of cells in quadrant Q1 (APC positive, GFP negative) [21]: 6.09% | percentage of stained cells [22]: 98.2% | percentage of cell staining [23]: 97.1% | detectable rate (% of tested specimens positive) [24]: 0% | detectable rate (% of tested specimens positive) [25]: 0%

B1: BM7 antibody (antibody, IgG1, V domains shown)
VH: QVTLKESGPGILKPSQTLSLTCSFSGFSLSTSGVGVGWIRQPSGKGLEWLAHIWWDDDEYYNPSLKSQLTISKDTSRNQVFLKITSVDTSDTATYYCARRYYGDAMDYWGQGTAVTVSS
VL: DVVMTQTPVSLPVSLGDQASISCRSTQSLVHSNGHTYLHWYLQKPGQSPKLLIYKVSNRFSGVPDRFSGTGSGTDFTLKISRVEAEDLGVYFCSQSTHVPYTFGGGTKLEIK
notes: Tested as hybridoma supernatant
percentage of cells stained [26]: 39.8%

B2: LA1 antibody (antibody, IgG1, V domains shown)
VH: EVQLQQSGPELVKPGASVKISCKTSGYTFTEDTMHWVKQSHGKSLEWIGGINPNKGGTSYNQKFKDKATLTVDKSSSTAYMELRSLTSEDSAVYYCATLVDYWGQGTTLTVSS
VL: DIVMTQSQKFMSTSVGDRVSVTCKASQNVGTNVAWYQQKPGQSPKALIHSASYRYSGVPDRFTGSGSGTDFTLTISNVQSEDLAEYFCQQYNSYPLTFGAGTKLELK
notes: Mouse hybridoma antibody, isotype IgG1, kappa; Tested as hybridoma supernatant
percentage of cells stained [26]: 70.9% | binding result [27]: binds
